For assay [1], the target named is 非洲猪瘟病毒(ASFV)灭活抗原 (African swine fever virus).
Assay [2] has the same target. The source holds these as a separate data set.
The target is the same in assay [3]. This is another data set of the same source.

Read-outs that look alike come from different tables or passages of the source.

The values that follow come from patent CN113278066A.

B1: 全猪源非洲猪瘟病毒单克隆抗体 κ-9B (antibody, V domains shown)
VH: EGKLVESGGGLVQPGGSLRLSCVGSGFDFINTYMNWVRQAPGKGLEWLATISTKGISTYYADSVKGRFTISKDNSQNTADLLMRILRIEDTVRYFCAMSDSGGRNCVAGDSSCPHYYGMNLWGPGVEVVVSS
VL: AIQLTQSPASLAASLGDTVSVTCRASQSISSYLAWYQQQPGKAPKLLIVAASTLQSGVPSRFKGSGSGTDFTLTISGLQAEDVATYYCFQRNSVPWTFGQGTKLELKA
As to B1, the OD值 in assay [1] was determined as 1.91 OD450nm; in assay [2] it was 0.733 OD450nm; in assay [3] it was 0.717 OD450nm.
